84 variants from the RNAGym collection of RNA variant scans (doi:10.1073/pnas.2313332121) can be followed below.

B1: TPR t1 (parent)
chain: GACCAAUCUGCCCUCAGAGCUCGAGAACAUCUUCGGAUGCAGAGGAGGCAGGCUUCGGUGGCGCGAUAGCGCCAACGUCCUCAACCUCCAAUGCAUCCCACCACAUGAUGAUGCCUGAAGAGCCUUGGUUUUUUG

The variants in this data set derive from B1. The data set is described as follows: polymerase ribozyme fitness, log enrichment relative to wild type (log ratio); higher = more active; in vitro selection for triplet polymerase activity. The procedure, abridged: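 Mutant libraries of each subunit of a heterodimeric triplet polymerase ribozyme were built by PCR and transcribed. Each library went through one round of in vitro selection in triplicate: annealing with biotinylated primer, partner subunit and triplets, frozen incubation at −7 °C, gel excision of extended constructs, streptavidin-bead capture and RT-PCR. Input and output libraries were Illumina-sequenced; only genotypes with ≥10 input reads and ≥1 read per output were kept. Fitness is log2(genotype enrichment/wild-type enrichment), using inverse-variance-weighted replicate averages.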
With U9G G65U, the “polymerase ribozyme fitness (log ratio)” value was -5.74.
In the case of C11A C40U G45A G61A U96G C124A, the “polymerase ribozyme fitness (log ratio)” value stood at 0.365.
Consider C11G C12G, for which the “polymerase ribozyme fitness (log ratio)” value is -1.01.
With U9G G65C G69C, the “polymerase ribozyme fitness (log ratio)” value is -5.37.
Turning to G10A G42U, the “polymerase ribozyme fitness (log ratio)” value was -1.32.
Consider G10C C11U C62G A84U A108G, for which the “polymerase ribozyme fitness (log ratio)” value was -4.22.
For C11A G93C C102A the value was -3.43; for G10C A46C C101A C123G U130A, -1.67; for G10C G63A, -1.49.
The value for G10A C49A G93U U112G was -1.97; that for G10U G47U G110U G117U G122A was -4.52.
The value for G10C G52U C53A was -1.16; that for G10U C114U was -2.39.
On to G10A C28G G47U U59G, for which the “polymerase ribozyme fitness (log ratio)” value was -5.
Take G10U C11G G60C A95G: the “polymerase ribozyme fitness (log ratio)” value was -0.947.
For G10A C40U A46C U130G the value was -2.46; for G10U C49U C72G C82A C114A, -2.83.
On to G10A G42A G44A C72U, for which the “polymerase ribozyme fitness (log ratio)” value was -1.94.
For C11A C49A C53U A90U U126C the value was -4.54; for C11G A111G G120C G127U, 0.661; for G10A C53G G61A A95G, -0.503.
In the case of C11A G69A C86U, the “polymerase ribozyme fitness (log ratio)” value was -3.51.
Turning to C11A A27U C34A C72G C97A G120U G127A U129C, the “polymerase ribozyme fitness (log ratio)” value is -6.
For G10U A37U G120C U129C the value was 0.637; for C11A C85U G120U, 0.755.
The value for C11A A66U G71A A121C U130A was -1.61; that for C11A G19C G57U was -5.03; that for G10U C53U was 0.0146.
For G10U G52U U96G the value was -0.544; for C11A G52A C70U A90G, -2.22.
For C11A C85U U133G, the “polymerase ribozyme fitness (log ratio)” value was -2.41.
For G10C G120U, the “polymerase ribozyme fitness (log ratio)” value was -1.23.
For C11A A46U G93A the value was -3.04.
The value for C11A U21G A41G A121U was -0.0986.
The value for C11G A74U A108G was -2.79.
Consider C11A C22U, for which the “polymerase ribozyme fitness (log ratio)” value is -5.15.
For C11A U132C the value was -1.49; for C11A G52A G110U G135U, -5.37; for G10A C40A A111C, -1.11.
Turning to G10U G52U C73G, the “polymerase ribozyme fitness (log ratio)” value was -0.827.
For C11A C13G U32C A50U G93U U96G U112A U131G the value was -4.75; for C11A C15U C34G C62G A95U G110U G120A, -7.3.
The value for C11G A41U G47C U59A A66U was -6.01; that for G10U A95U G128A was -3.44.
For G10U C15G the value was -1.83; for G10U G93A C99U, -4.71; for G10C A46G C124U, -0.222.
Turning to G10C U78C, the “polymerase ribozyme fitness (log ratio)” value is -1.63.
The value for G10A G47C G51C U59G U81C C115A was -5.77; that for G10A G120U G135C was 1.62.
The value for G10C U14G C70U A91C was -4.25.
For G10U C22G C56U C72U A90G C114U the value was -3.41; for G10A C53A, -0.00777.
For the variant G10A C98U C115A, the “polymerase ribozyme fitness (log ratio)” value is -2.67.
On to C11A A18U C49A C123G, for which the “polymerase ribozyme fitness (log ratio)” value was -2.08.
The value for G10C C72U A118G was -1.84.
On to G10C, for which the “polymerase ribozyme fitness (log ratio)” value was -0.497.
The value for G10U was -0.124; that for G10A was 0.148; that for C11A C70G was -3.13.
The value for C11A C70U was -2.4; that for G10A U96A was -0.657.
The value for U9G U59G C88A A118U was 0.424; that for G10C C15U was -0.996.
Regarding G10A G71A A83C U106A A108U, the “polymerase ribozyme fitness (log ratio)” value was -1.78.
For G10A G44U the value was -1.5.
The value for G10U C20A C49U G65C C94A U109G was -7.47.
For G10U U92G C94U U133A the value was -2.28; for G10A C53G G69U C88U G110U, -0.0648.
Take G10U C11G G47C G58A C62G: the “polymerase ribozyme fitness (log ratio)” value is -3.87.
In the case of G10A C13G A27U C72U A105U, the “polymerase ribozyme fitness (log ratio)” value was -3.22.
The value for G10A U81A was -0.546; that for G10A G47U C56U C82A A83G was -2.51; that for G10A A18C G122A C123G was -0.417.
In the case of G10U G48C, the “polymerase ribozyme fitness (log ratio)” value is -0.778.
For C11A U21G G120U C123A the value was -0.701; for G10U C62U C88U C89G A121G U132C, 0.563.
On to C11A G42U C70U, for which the “polymerase ribozyme fitness (log ratio)” value was -3.6.
For G10U C13G U78A C104U the value was 0.299; for C11A C56A, -1.49; for C11A U126A U129C, -2.33.
The value for G10C C13A G57U G61C A111U was -5.2; that for C11A G52C A74C A111C was -1.71.
The value for C11G A24G A37C G42A U92C A118U was -3.62.
